Data on one protein can be found in article PMC4587089, “Molecular cloning of AtRS4, a seed specific multifunctional RFO synthase/galactosylhydrolase in Arabidopsis thaliana” (Frontiers in Plant Science, 2015).

Common to all, as to assay type: biochemical, Arabidopsis thaliana
Substrate in data set [1]: OC[C@H]1O[C@H](OC[C@H]2O[C@H](O[C@]3(CO)O[C@H](CO)[C@@H](O)[C@@H]3O)[C@H](O)[C@@H](O)[C@@H]2O)[C@H](O)[C@@H](O)[C@H]1O
Nature of the data set: HPAEC-PAD, stachyose formation. The note with it: stachyose synthase reaction, galactosyl acceptor, co-substrate galactinol (standard assay 100 μM), 25 mM K-phosphate pH 7, 25°C, 60 min.

Substrate in data set [2]: OC[C@H]1O[C@H](O[C@@H]2[C@@H](O)[C@H](O)[C@@H](O)[C@H](O)[C@@H]2O)[C@H](O)[C@@H](O)[C@H]1O
Nature of the data set: HPAEC-PAD, stachyose formation. The note with it: stachyose synthase reaction, galactosyl donor, co-substrate raffinose (standard assay 400 μM), range 50 to 1,200 μM, 25 mM K-phosphate pH 7, 25°C, 60 min.

Substrate in data set [3]: OC[C@H]1O[C@H](OC[C@H]2O[C@H](OC[C@H]3O[C@H](O[C@]4(CO)O[C@H](CO)[C@@H](O)[C@@H]4O)[C@H](O)[C@@H](O)[C@@H]3O)[C@H](O)[C@@H](O)[C@H]2O)[C@H](O)[C@@H](O)[C@H]1O
Nature of the data set: HPAEC-PAD, raffinose formation. The note with it: galactosylhydrolase reaction, stachyose alone, range 50 to 1,200 μM, 25 mM K-phosphate pH 7, 25°C, 60 min.

B1: AtRS4 (AtSTS, AtStaS, At4g01970) (Arabidopsis thaliana) (protein)
chain: MAPLHESLSSINDVIESKPLFVPITKPILQPNSFNLSEGSLCAKDSTPILFDVPQNVTFTPFSSHSISTDAPLPILLRVQANAHKGGFLGFTKESPSDRLTNSLGRFEDREFLSLFRFKMWWSTAWIGKSGSDLQAETQWVMLKIPEIDSYVAIIPTIEGAFRASLTPGEKGNVLICAESGSTKVKESSFKSIAYIHICDNPYNLMKEAFSALRVHMNTFKLLEEKKLPKIVDKFGWCTWDACYLTVDPATIWTGVKEFEDGGVCPKFVIIDDGWQSINFDGDELDKDAENLVLGGEQMTARLTSFKECKKFRNYKGGSFITSDASHFNPLKPKMLIYKATERIQAIILRRKLVKESGEQDLTELDEKIKILSEELNAMFDEVEKEESLGSDDVSGSGMAAFTKDLRLRFKSLDDIYVWHALCGAWNGVRPETMMDLKAKVAPFELSPSLGATMADLAVDKVVEAGIGLVHPSKAHEFYDSMHSYLASVGVTGAKIDVFQTLESLAEEHGGRVELAKAYYDGLTESMIKNFNGTDVIASMQQCNEFFFLATKQISIGRVGDDFWWQDPYGDPQGVYWLQGVHMIHCSYNSIWMGQMIQPDWDMFQSDHVCAEYHAASRAICGGPVYLSDHLGKASHNFDLIKKLAFFDGTIPRCVHYALPTRDSLFKNPLFDKESILKIFNFNKFGGVIGTFNCQGAGWSPEEHRFKGYKECYTTVSGTVHVSDIEWDQNPEAAGSQVTYTGDYLVYKQQSEEILFMNSKSEAMKITLEPSAFDLLSFVPVTELVSSGVRFAPLGLINMFNCVGTVQDMKVTGDNSIRVDVKGEGRFMAYSSSAPVKCYLNDKEAEFKWEEETGKLSFFVPWVEESGGISHLSFTF
As for B1, the Km in data set [1] was 259.2 ± 21.15 µM; in data set [2], 1,170 ± 246.8 μM; in data set [3], 1,059 ± 269.3 μM.

One may read the Km as the substrate concentration at which the rate is half of its maximum.
